From publication PMC12412097, “Structure and Nitrite Reductase Activity of the Di-iron Protein ScdA in Staphylococcus aureus” (Journal of the American Chemical Society, 2025)

Assays:
O=NO = assay: purified protein; conditions: pH 7.6, methyl viologen cation radical as electron donor, 1 μM enzyme
[1] = biological target: C-terminal domain-only (CTD, residues 64-224) variant of ScdA (S. aureus) (UniProt P72360); assay: SEC; Superdex 75 Increase 10/300 GL, 20 mM Tris, 150 mM NaCl, pH 7.6; no reducing agent (WT also with MV radicals); oligomer peak at 9.2 mL, dimer peak at 10.9 mL

“ScdA (Staphylococcus aureus subsp. aureus NCTC 8325)” was tested, and the Km (O=NO; partly oligomeric) was 681 µM and the kcat (O=NO; partly oligomeric) was 32.3 min^–1.

For “ScdA (Staphylococcus aureus subsp. aureus NCTC 8325; C191A/C30A/C31A)”, the Km (O=NO; predominantly dimeric) was 822 µM and the kcat (O=NO; predominantly dimeric) was 94.3 min^–1.

For “C-terminal domain-only (CTD, residues 64-224) variant of ScdA (from UniProt P72360 64-224) (domain or fragment)”, the stoichiometry N [1] was 2.
